Consider 8 sequences from publication PMC11180011.

This series deals with T1, DasR (Streptomyces lincolnensis NBRC_13054), ORF:7245352e.
T1 sequence: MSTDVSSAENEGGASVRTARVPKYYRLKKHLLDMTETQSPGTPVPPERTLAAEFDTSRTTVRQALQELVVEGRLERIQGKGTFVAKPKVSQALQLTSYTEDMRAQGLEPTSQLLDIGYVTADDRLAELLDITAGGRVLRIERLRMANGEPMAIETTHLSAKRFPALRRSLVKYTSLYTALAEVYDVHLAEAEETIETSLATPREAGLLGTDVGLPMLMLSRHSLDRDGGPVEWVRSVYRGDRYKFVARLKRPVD
As to the kind of experiment: EMSA. The conditions noted are these: EMSA kit, 20 uL, 50 ng/uL Cy5 probe, 6% non-denaturing PAGE; fifth lane with 10 mg/mL salmon sperm DNA; buffer, pH, salt and temperature not given.

In the case of “AGCCAGTGGCGATAAGGCTGGGCCTGCCGTTCTCAAGGGGCTGCACGGGGTGTGTGGTTTAGACCAATCCAGCCTCCAATCTAACAGAACCTCGCCCGGCCTCCCAGGTCTGCCGGGTGTCCCGGAGATGACCGGAAACCCTCGGCGAGGGCACCCCTCGCCCCGCGGTCCCTACGTCAGCGAACTTATCGCCACTGGCT (double strand) [nagB promoter]”, the binding result is “binds”.

Consider “AGCCAGTGGCGATAAGACGCACGTACGCAACTCCTTTCGGTTTCCCAGGAGTCACTCCCCGGTCCGGACGGGACATGAACTAATTCAGCTACTTATCGGTCAATCTTGAGCGCGTAGTGCCTTCATGTGGTCGGCAATGCCAGGTTCATGACATTCTCGAATGCTCGGCAATCACAGGCCCTACCGGCGGGGAGGACGCTGGTGGAGTTCGAGATCTTATCGCCACTGGCT (double strand) [SLINC_4481 promoter]”, for which the binding entry was “no binding”. As for “AGCCAGTGGCGATAAGGGTTCCTGCATATGTAGCTCGTATAACGGCTGGTCAGAGCCGTTCCAGCACTCTTGACAGGTGTATTGGCCTGGTCCAAGCTCCGGGTACTGGTCTACACCATTGGTCCAGGTCCCGGCTCCATGGGCGGGGGGTGTGGGCATCCCTGAGGAGGCTTATCGCCACTGGCT (double strand) [dasA promoter]”, the binding entry is on record as “binds”.

Regarding “AGCCAGTGGCGATAAGATGACATGTCTCACGGGGGACAGTGTGACCCCAGGACCCGCAAGAGGTCTAGTCCACTCACGTGGTGTAGACCTTAGGGCGGCAATATGTATGACCTTTCGAGAGTTTTTCGATCAGTGATCTTGAGGCGGTTGGCAGTGCGGCGGCGTAGGACTTATCGCCACTGGCT (double strand) [nagK promoter]”, the binding entry was “binds”. “AGCCAGTGGCGATAAGATATCCTCTTTCCCCGGGAGAGCCGGTCCCCGTGGTTGTCGCGACGGATGCTGTGGGTCTTCGGCGGGGTGTTCGCCCTCGGTACGGCACTCTTCGCGCTGATTTCCCTCCTGCGGTCGGATTTCCGCCTCTCCGTGGTCGAGATCGGTGCGGTGCTCGCGATCGTGGGACTGCTGACCTGGGCCGCTTCACGCTGCCAGGCCCGAGACACACCGTGTGTACCGAAGCGACTGCCTGGGACGCTACGGGCCGGATGGACTTATCGCCACTGGCT (double strand) [lmrA promoter]”: the binding result is on record as “no binding”.

For “AGCCAGTGGCGATAAGATGACTCAAAAGACTCTCCTCACCACACGCGCCACGTAACGGTGGGCACGTGGCGCGCATGACGTTCGTGCAGAAGCAGTTGTCGTTGTGGACGCAGGCACCGGTGGCCCGCTTATTCAGTTGTGAAGTCTGGTTGCGCGACGCGGCGCGCGAAGTCTGTTGCTAGAGCTCTTATCGCCACTGGCT (double strand) [SLINC_6156 promoter]”, the binding result is “no binding”. On to “AGCCAGTGGCGATAAGTCACTCGGTCTTCCCGTCCGCCGGACCGCCAACCCCTACCTCGCCAGGGCCCTGGGATAGGCCGGCGGGCGGCGCCGCCCGTGACGCGTAGCTGCCCTGGACGAAGGAGGCCACGCGTCGGCCGCGCCACTCCTGCGGGGCGCCCGGGCCGAGCGCGGTGACCGTGCCGGGCTGCGTAGGCTCACAGACATGGCTGAGATCGGGCTGCGTGCTTATCGCCACTGGCT (double strand) [SLINC_3938 promoter]”, for which the binding entry is on record as “no binding”. The value for “AGCCAGTGGCGATAAGAGGGCCTGGATGAGCTGCCTGTCCACCGCGTCCATGCGATCGAAGCCTTCCGATGAAGAGATCCCGAAGTGATGAGAGGTACTGCCCTGTGCCCTGCTGCTCTGTGCCGTGCTGCCCTGTGCCCTACTGCCCTGTGTCCTCTTATCGCCACTGGCT (double strand) [SLINC_4906 promoter]” was “no binding”.
